In patent US20230022700A1:

Target: polymerized rabbit skeletal muscle actin (F-actin) (rabbit) (UniProt P68135)

Substance: Wolbachia wMel protein WD0830 (Wolbachia actin localizing effector 1, WalE1), purified from E. coli
- percent of total protein in the pellet when actin was present: 24%
